Data taken from patent publication US20150344580A1 (MSM PROTEIN TECHNOLOGIES, published 2015).
Where a chain is given by its changes, count along the chain named.

T1: human chemokine receptor CCR7 (human, UniProt P32248 25-378)
T1 sequence: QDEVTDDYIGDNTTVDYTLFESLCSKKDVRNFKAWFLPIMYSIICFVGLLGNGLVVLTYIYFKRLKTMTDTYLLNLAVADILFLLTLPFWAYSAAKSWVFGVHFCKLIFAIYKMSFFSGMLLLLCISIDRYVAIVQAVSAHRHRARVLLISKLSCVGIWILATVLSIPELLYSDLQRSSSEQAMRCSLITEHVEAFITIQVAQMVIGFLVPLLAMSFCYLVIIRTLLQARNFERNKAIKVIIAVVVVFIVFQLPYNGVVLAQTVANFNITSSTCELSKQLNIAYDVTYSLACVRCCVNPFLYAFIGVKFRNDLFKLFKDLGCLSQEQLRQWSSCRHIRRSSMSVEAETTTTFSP

T2: human CD22 (human, UniProt P20273 20-847)
T2 sequence (looked up): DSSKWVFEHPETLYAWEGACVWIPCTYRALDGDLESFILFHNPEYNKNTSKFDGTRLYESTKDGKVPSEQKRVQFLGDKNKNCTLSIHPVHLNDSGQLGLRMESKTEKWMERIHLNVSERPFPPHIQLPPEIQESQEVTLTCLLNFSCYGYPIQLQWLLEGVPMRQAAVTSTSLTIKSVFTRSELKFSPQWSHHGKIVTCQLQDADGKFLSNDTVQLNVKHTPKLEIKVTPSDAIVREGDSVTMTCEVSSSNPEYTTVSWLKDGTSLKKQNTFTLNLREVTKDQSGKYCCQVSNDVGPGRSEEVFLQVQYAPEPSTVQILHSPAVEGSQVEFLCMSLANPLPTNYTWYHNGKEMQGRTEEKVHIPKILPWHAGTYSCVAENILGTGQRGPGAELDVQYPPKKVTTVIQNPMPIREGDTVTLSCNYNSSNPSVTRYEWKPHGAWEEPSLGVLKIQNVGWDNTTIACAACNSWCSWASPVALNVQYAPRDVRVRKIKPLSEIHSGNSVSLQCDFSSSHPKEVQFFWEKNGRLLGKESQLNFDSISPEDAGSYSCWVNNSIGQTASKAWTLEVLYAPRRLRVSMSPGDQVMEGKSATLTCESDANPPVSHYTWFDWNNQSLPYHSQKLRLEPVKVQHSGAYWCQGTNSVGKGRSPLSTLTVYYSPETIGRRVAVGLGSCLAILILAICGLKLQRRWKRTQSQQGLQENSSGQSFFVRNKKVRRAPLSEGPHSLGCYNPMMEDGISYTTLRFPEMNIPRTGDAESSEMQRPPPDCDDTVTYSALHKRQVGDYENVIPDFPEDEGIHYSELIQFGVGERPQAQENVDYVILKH

B1: MSM R707 in IgG4 format (antibody)
heavy: EVQLLESGGGLVQPGGSLRLSCAASGFTFSNYAIHWVRQAPGKGLEWVSAITPRGGYTYYADSVKGRFTISRDNSKNTLYLQMNSLRAEDTAVYYCARGLTMMYTPGMDYWGQGTLVTVSSASTKGPSVFPLAPCSRSTSESTAALGCLVKDYFPEPVTVSWNSGALTSGVHTFPAVLQSSGLYSLSSVVTVPSSSLGTKTYTCNVDHKPSNTKVDKRVESKYGPPCPSCPAPEFLGGPSVFLFPPKPKDTLMISRTPEVTCVVVDVSQEDPEVQFNWYVDGVEVHNAKTKPREEQFNSTYRVVSVLTVLHQDWLNGKEYKCKVSNKGLPSSIEKTISKAKGQPREPQVYTLPPSQEEMTKNQVSLTCLVKGFYPSDIAVEWESNGQPENNYKTTPPVLDSDGSFFLYSRLTVDKSRWQEGNVFSCSVMHEALHNHYTQKSLSLSPGK
light: not shown
notes: also called IgG4 R707; IgG4 formatted MSM R707
B2: MSM R735 in IgG4 format (antibody)
heavy: EVQLLESGGGLVQPGGSLRLSCAASGFTFSNYNMHWVRQAPGKGLEWVSGIGPRRGRTYYADSVKGRFTISRDNSKNTLYLQMNSLRAEDTAVYYCARSYAYQYRGLDYWGQGTLVTVSSASTKGPSVFPLAPCSRSTSESTAALGCLVKDYFPEPVTVSWNSGALTSGVHTFPAVLQSSGLYSLSSVVTVPSSSLGTKTYTCNVDHKPSNTKVDKRVESKYGPPCPSCPAPEFLGGPSVFLFPPKPKDTLMISRTPEVTCVVVDVSQEDPEVQFNWYVDGVEVHNAKTKPREEQFNSTYRVVSVLTVLHQDWLNGKEYKCKVSNKGLPSSIEKTISKAKGQPREPQVYTLPPSQEEMTKNQVSLTCLVKGFYPSDIAVEWESNGQPENNYKTTPPVLDSDGSFFLYSRLTVDKSRWQEGNVFSCSVMHEALHNHYTQKSLSLSPGK
light: EIVLTQSPGTLSLSPGERATLSCRASQSVSSSYLAWYQQKPGQAPRLLIYGASSRATGIPDRFSGSGSGTDFTLTISRLEPEDFAVYYCQQGSPVTFGQGTKVEIKRTVAAPSVFIFPPSDEQLKSGTASVVCLLNNFYPREAKVQWKVDNALQSGNSQESVTEQDSKDSTYSLSSTLTLSKADYEKHKVYACEVTHQGLSSPVTKSFNRGEC
notes: also called IgG4 formatted MSM R735
B3: mouse anti-human CD22 monoclonal antibody (antibody, V domains shown)
VH: QVQLQQSGAELVKPGASVKMSCKASGYTFTSYWLHWIKQRPGQGLEWIGYINPRNDYTEYNQKFKDKATLTADKSSSTAYMQLSSLTSEDSAVYYCARRDITTFYWGQGTTLTVSS
VL: DIQLTQSPSSLAVSAGENVTMSCKSSQSVLYSANHKNYLAWYQQKPGQSPKLLIYWASTRESGVPDRFTGSGSGTDFTLTISRVQVEDLAIYYCHQYLSSWTFGGGTKLEIK
B4: R707MSF (MSM-R707 HC CDR3 mutant, IgG1) (antibody, V domains shown)
VH: EVQLLESGGGLVQPGGSLRLSCAASGFTFSNYAIHWVRQAPGKGLEWVSAITPRGGYTYYADSVKGRFTISRDNSKNTLYLQMNSLRAEDTAVYYCARGLTMSYTPGFDYWGQGTLVTVSS
VL: not shown
notes: IgG1
B5: R707RMF (MSM-R707 HC CDR3 mutant, IgG1) (antibody, V domains shown)
VH: B4 VH with M102R, S103M
VL: not shown
notes: IgG1
B6: R707MVF (MSM-R707 HC CDR3 mutant, IgG1) (antibody, V domains shown)
VH: B4 VH with S103V
VL: not shown
notes: IgG1
B7: R707MGF (MSM-R707 HC CDR3 mutant, IgG1) (antibody, V domains shown)
VH: B4 VH with S103G
VL: not shown
notes: IgG1
B8: R707MAF (MSM-R707 HC CDR3 mutant, IgG1) (antibody, V domains shown)
VH: B4 VH with S103A
VL: not shown
notes: IgG1
B9: R707MRF (MSM-R707 HC CDR3 mutant, IgG1) (antibody, V domains shown)
VH: B4 VH with S103R
VL: not shown
notes: IgG1
B10: R707IMF (MSM-R707 HC CDR3 mutant, IgG1) (antibody, V domains shown)
VH: B4 VH with M102I, S103M
VL: not shown
notes: IgG1
B11: R707SMF (MSM-R707 HC CDR3 mutant, IgG1) (antibody, V domains shown)
VH: B4 VH with M102S, S103M
VL: not shown
notes: IgG1
B12: R707TMF (MSM-R707 HC CDR3 mutant, IgG1) (antibody, V domains shown)
VH: B4 VH with M102T, S103M
VL: not shown
notes: IgG1
B13: R707FMF (MSM-R707 HC CDR3 mutant, IgG1) (antibody, V domains shown)
VH: B4 VH with M102F, S103M
VL: not shown
notes: IgG1
B14: R707KMF (MSM-R707 HC CDR3 mutant, IgG1) (antibody, V domains shown)
VH: B4 VH with M102K, S103M
VL: not shown
notes: IgG1
B15: R707MLF (MSM-R707 HC CDR3 mutant, IgG1) (antibody, V domains shown)
VH: B4 VH with S103L
VL: not shown
notes: IgG1
B16: R707NMF (MSM-R707 HC CDR3 mutant, IgG1) (antibody, V domains shown)
VH: B4 VH with M102N, S103M
VL: not shown
notes: IgG1
B17: R707LMF (MSM-R707 HC CDR3 mutant, IgG1) (antibody, V domains shown)
VH: B4 VH with M102L, S103M
VL: not shown
notes: IgG1
B18: R707MPF (MSM-R707 HC CDR3 mutant, IgG1) (antibody, V domains shown)
VH: B4 VH with S103P
VL: not shown
notes: IgG1
B19: R707WMF (MSM-R707 HC CDR3 mutant, IgG1) (antibody, V domains shown)
VH: B4 VH with M102W, S103M
VL: not shown
notes: IgG1
B20: R707MQF (MSM-R707 HC CDR3 mutant, IgG1) (antibody, V domains shown)
VH: B4 VH with S103Q
VL: not shown
notes: IgG1
B21: R707MTF (MSM-R707 HC CDR3 mutant, IgG1) (antibody, V domains shown)
VH: B4 VH with S103T
VL: not shown
notes: IgG1
B22: MSM-R707BI (fully human anti-human CCR7 antibody, IgG1) (antibody, V domains shown)
VH: B4 VH with M102I
VL: not shown
notes: IgG1 format; HC CDR3 derivative of MSM-R707; also called MSM-R7707BI; R707B1
B23: MSM-R707BL (fully human anti-human CCR7 antibody, IgG1) (antibody, V domains shown)
VH: B4 VH with M102L
VL: not shown
notes: IgG1 format; HC CDR3 derivative of MSM-R707
B24: MSM-R707BR (fully human anti-human CCR7 antibody, IgG1) (antibody, V domains shown)
VH: B4 VH with M102R
VL: not shown
notes: as for B23

Target: T1, human chemokine receptor CCR7
Assay: cell-based or functional assay

IC50 of inhibition of Ca-flux induced by 18 nM CCL19, Chem-1 CCR7h cells [nM] | IC50 of inhibition of CCL19-induced Ca-flux in cells expressing human CCR7 [nM] | Binder
~20 | – | B1
– | 128 | B2

Target: T2, human CD22
Assay: cell-based or functional assay

Binder | EC50 of cell killing with mouse Fab-ZAP, CLL-AAT cells [nM] | EC50 of cell killing with mouse Fab-ZAP, JVM-13 cells [nM]
B3 | 0.06 | 0.5

Target: T1, human chemokine receptor CCR7
Assay: IgG1 of Table 16 on human CCR7-expressing cells

binding result | Binder
binds | B4
binds | B5
binds | B6
binds | B7
binds | B8
binds | B9
binds | B10
binds | B11
binds | B12
binds | B13
binds | B14
binds | B15
binds | B16
binds | B17
binds | B18
binds | B19
binds | B20
binds | B21

Target: T1, human chemokine receptor CCR7
Assay: flow cytometry titration, CHO cells expressing human CCR7

EC50 [nM] | Binder
6.7 | B22

Target: T1, human chemokine receptor CCR7
Assay: flow cytometry titration, CHO-human CCR7 cells, anti-human Fc-PE
Procedure: The affinity of IgG1 antibodies to human CCR7 was evaluated by measuring mean fluorescence value (MFI) of cells expressing CCR7 in the presence of varying concentration of antibody in question, upon staining of bound to the cells antibodies with a commercial anti-human antibody-PE conjugate. The data of such experiments are depicted in FIGS. 9, 10, and 11. In these experiments binding of some antibodies to parental cells or cells expressing mouse CCR7 was also quantitatively characterized by obtaining EC₅₀ value (a concentration of IgG1 at which half-maximum MFI is achieved) for each curve using the SoftMaxPro5 program.

EC50 [nM] | Binder
2.6 | B23
5.5 | B22
1.9 | B24

Target: T1, human chemokine receptor CCR7
Assay: flow cytometry titration on CCR7 over-expressing cells (direct binding, printed as IC50)

IC50 [nM] | Binder
4.9 to 7.6 | B1
2.5 to 5.3 | B2
